Experimental data from patent US20260193309A1 (BRIGHAM AND WOMEN S HOSPITAL, published 2026).
Changes are numbered by the printed parent chain. In names and notes the source's numbering stands.

B1: human CEACAM1 IgV domain, wild type (tagless hCEACAM1 IgV domain) (receptor)
chain: QLTTESMPFNVAEGKEVLLLVHNLPQQLFGYSWYKGERVDGNRQIVGYAIGTQQATPGPANSGRETIYPNASLLIQNVTQNDTGFYTLQVIKSDLVNEEATGQFHVYP
notes: also called hCEACAM1 WT; WT
B2: hCEACAM1 IgV domain variant Q89H (receptor)
chain: B1 chain with Q89H
notes: also called tagless Q89H; hCEACAM1 Q89H
B3: hCEACAM1 IgV domain variant R38D (receptor)
chain: B1 chain with R38D
notes: also called tagless R38D; hCEACAM1 R38D
B4: hCEACAM1 IgV domain variant R38D/G41S (receptor)
chain: B1 chain with R38D, G41S
notes: also called R38D G41S monomer
B5: hCEACAM1 IgV domain variant D40R (receptor)
chain: B1 chain with D40R
notes: also called hCEACAM1 D40R
B6: hCEACAM1 IgV domain mutant V39A (receptor)
chain: B1 chain with V39A
notes: also called hCEACAM1 V39A
B7: hCEACAM1 IgV domain mutant I91A (receptor)
chain: B1 chain with I91A
notes: also called hCEACAM1 I91A

Tests used:
[1] = target: the molecule itself; test: PDB-PISA analysis of the dimer crystal structure
[2] = target: B1; test: ELISA binding assay, tagless hCEACAM1 IgV protein added to WT hCEACAM1; signal given as fold response relative to WT
[3] = target: B1; test: PDB-PISA analysis of the dimer crystal structure
[4] = target: B1; test: structure of the heterodimer (FIG. 10C)
[5] = target: the molecule itself; test: DSF and SEC-MALS (FIGS. 14B and 14C)

Binder: B1
- PDB dimer formation score (PDB-PISA) [1]: 0.89

Binder: B2
- binding result [2]: binds
- PDB dimer formation score (PDB-PISA) [1]: 0.96

Binder: B3
- PDB dimer formation score (PDB-PISA) [3]: 0.91

Binder: B4
- binding result [4]: binds

Binder: B5
- PDB dimer formation score (PDB-PISA) [1]: 0.93

Binder: B6
- binding result [5]: binds

Binder: B7
- binding result [5]: binds
